The results in this text go back to patent publication US20260274896A1 (ICHIMARU PHARCOS, published 2026).

*1 amine or outer side, *2 acyl side, *3 side chain or, on linkers, in order; H or OH if unused. Bridges are numbered along the chain shown (N, C = ends). [ ]: non-standard residue; d: D form. TBMB = c1c(C[*:1])cc(C[*:3])cc1C[*:2]; NMeY = CN[C@@H](Cc1ccc(O)cc1)C(=O)O; pXylylene = c1cc(C[*:2])ccc1C[*:1]; Dap = NC[C@H](N)C(=O)O; Mpa = O=C(O)CCS; Sar = CNCC(=O)O

Experiment [1] deals with T1, Vasoactive intestinal peptide receptor 2 (VIPR2), human, on the human VIPR2-expressing cell line (Catalog No. … (human, UniProt P41587 24-438)).
T1 construct: whole, on cells; also called VPAC2; VIPR2-expressing cells
T1 sequence (looked up): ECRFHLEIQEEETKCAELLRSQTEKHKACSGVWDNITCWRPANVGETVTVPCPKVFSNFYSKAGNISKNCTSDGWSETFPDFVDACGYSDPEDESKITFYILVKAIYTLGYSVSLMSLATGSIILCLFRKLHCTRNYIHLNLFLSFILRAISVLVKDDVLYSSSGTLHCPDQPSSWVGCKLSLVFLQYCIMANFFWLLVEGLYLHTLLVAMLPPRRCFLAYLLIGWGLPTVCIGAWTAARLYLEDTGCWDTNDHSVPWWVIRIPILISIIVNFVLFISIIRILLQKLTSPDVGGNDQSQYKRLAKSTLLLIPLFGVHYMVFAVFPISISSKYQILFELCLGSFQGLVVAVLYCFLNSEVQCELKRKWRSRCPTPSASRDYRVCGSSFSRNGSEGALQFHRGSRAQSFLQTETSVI
As to the kind of experiment: summary of the Examples (binding to VIPR2-expressing cells).

The target of experiment [2] is T1, Vasoactive intestinal peptide receptor …. The experiment is described as follows: competitive cell-based ELISA on human VIPR2-expressing cells; competitor Biotin-VIpep-3 (1000 nM). On the procedure: (§1) To confirm the binding activity of the amino acid substituted peptides to VIPR2, a competitive binding assay was constructed using the cell-based ELISA method shown in FIG. 3. The following is a brief description of this cell-based ELISA method. Human VIPR2-expressing cell line (Catalog No. HTS079RTA, manufactured by EUROFINS) was spread in a 96-well plate using the culture medium provided by the manufacturer, and cultured overnight at 37° C. in a CO₂ incubator. After washing the plates with HBSS containing 0.1% BSA, the mixtures containing Biotin-VIpep-3 (1000 nM) and any concentration of amino acid substituted peptide or VIpep-3 were prepared and added at 50 μL/well. After reaction on ice for 60 minutes, the plate was washed with 0.1% BSA containing HBSS. Biotin-VIpep-3 bound to VIPR2-expressing cells adhering to the plate was detected with SA-HRP (catalog no. ab7403, Abcam). For HRP quantification, SuperSignal ELISA Pico Chemiluminescent Substrate (Catalog No. 37070, ThermoFisher) was used to measure chemiluminescence values. […] In other words, the binding activity of amino acid substituted peptides and VIpep-3 to VIPR2 is detected as a competitive inhibitory activity against Biotin-VIpep-3 binding. […] Then, using the 50% inhibitory activity value of VIpep-3 as 1, the relative inhibitory activity values of the amino acid-substituted peptides were calculated.
On the technique in general: ELISA stands for enzyme-linked immunosorbent assay.

For experiment [3] the target is unchanged. As to the kind of experiment: competitive cell-based ELISA on human VIPR2-expressing cells; competitor Biotin-VIpep-3 (1000 nM), N=4. The procedure: as §1

B1: Seq-2 (peptide)
peptide: XYLPKYLCDLI
modifications: Mpa at position 1; NmeTyr (N-methyl-Tyr) at position 2; thioether bridge via DIBut (1,4-diiodobutane) linker (1-8); side-chain amide(5-9) between Lys5 and Asp9; C-terminal amide (NH2)
notes: Synthetic bicyclic peptide
On to B1, for which the binding result in experiment [1] is recorded as “binds”.

B2: Seq-4 (peptide)
peptide: XYLPKYLCDLI
modifications: Mpa at position 1; NmeTyr at position 2; thioether bridge via DIHex (1,6-diiodohexane) linker (1-8); side-chain amide(5-9) between Lys5 and Asp9; C-terminal amide (NH2)
notes: Synthetic bicyclic peptide
Regarding B2, the binding result in experiment [1] is “binds”.

B3: VIpep-3 (peptide)
peptide: Ac-CPPYLPRRLCTLLLRS-OH
modifications: disulfide 1-10
SMILES: CC(=O)N[C@H]1CSSC[C@@H](C(=O)N[C@H](C(=O)N[C@@H](CC(C)C)C(=O)N[C@@H](CC(C)C)C(=O)N[C@@H](CC(C)C)C(=O)N[C@@H](CCCNC(=N)N)C(=O)N[C@@H](CO)C(=O)O)[C@@H](C)O)NC(=O)[C@H](CC(C)C)NC(=O)[C@H](CCCNC(=N)N)NC(=O)[C@H](CCCNC(=N)N)NC(=O)[C@@H]2CCCN2C(=O)[C@H](CC(C)C)NC(=O)[C@H](Cc2ccc(O)cc2)NC(=O)[C@@H]2CCCN2C(=O)[C@@H]2CCCN2C1=O
notes: also called Vlpep-3
Regarding B3, the binding result in experiment [2] was “binds”.

B4: Seq-3 (peptide)
peptide: XYLPKYLCDLI
modifications: Mpa at position 1; NmeTyr at position 2; thioether bridge via DIPen (1,5-diiodopentane) linker (1-8); side-chain amide(5-9) between Lys5 and Asp9; C-terminal amide (NH2)
notes: Synthetic bicyclic peptide
With B4, the binding result in experiment [1] is recorded as “binds”.

B5: Seq-5 (peptide)
peptide: XYLPKYLCDLI
modifications: Mpa at position 1; NmeTyr at position 2; thioether bridge via DBoXy (1,2-bis(bromomethyl)benzene) linker (1-8); side-chain amide(5-9) between Lys5 and Asp9; C-terminal amide (NH2)
notes: Synthetic bicyclic peptide
Take B5: the binding result in experiment [1] is recorded as “binds”.

B6: Seq-7 (peptide)
peptide: [Mpa][NMeY]LPKYLCDLI-NH2
modifications: linker 1-8 via pXylylene; lactam 5-9
SMILES: CC[C@H](C)[C@H](NC(=O)[C@H](CC(C)C)NC(=O)[C@@H]1CC(=O)NCCCC[C@@H]2NC(=O)[C@@H]3CCCN3C(=O)[C@H](CC(C)C)NC(=O)[C@H](Cc3ccc(O)cc3)N(C)C(=O)CCSCc3ccc(cc3)CSC[C@H](NC(=O)[C@H](CC(C)C)NC(=O)[C@H](Cc3ccc(O)cc3)NC2=O)C(=O)N1)C(N)=O
notes: Synthetic bicyclic peptide
For B6, the binding result in experiment [1] is recorded as “binds”.

B7: Seq-8 (peptide)
peptide: [Mpa][NMeY]L[Sar]CYLCSLI-NH2
modifications: linker 1-5-8 via TBMB
SMILES: CC[C@H](C)[C@H](NC(=O)[C@H](CC(C)C)NC(=O)[C@H](CO)NC(=O)[C@@H]1CSCc2cc3cc(c2)CSC[C@H](NC(=O)CN(C)C(=O)[C@H](CC(C)C)NC(=O)[C@H](Cc2ccc(O)cc2)N(C)C(=O)CCSC3)C(=O)N[C@@H](Cc2ccc(O)cc2)C(=O)N[C@@H](CC(C)C)C(=O)N1)C(N)=O
notes: Synthetic bicyclic peptide
Consider B7, for which, in experiment [3], the binding result is recorded as “binds”.

B8: Seq-1 (peptide)
peptide: [Mpa]PPYLPKYLCDLI-NH2
modifications: disulfide 1-10; lactam 7-11
SMILES: CC[C@H](C)[C@H](NC(=O)[C@H](CC(C)C)NC(=O)[C@@H]1CC(=O)NCCCC[C@@H]2NC(=O)[C@@H]3CCCN3C(=O)[C@H](CC(C)C)NC(=O)[C@H](Cc3ccc(O)cc3)NC(=O)[C@@H]3CCCN3C(=O)[C@@H]3CCCN3C(=O)CCSSC[C@H](NC(=O)[C@H](CC(C)C)NC(=O)[C@H](Cc3ccc(O)cc3)NC2=O)C(=O)N1)C(N)=O
notes: Synthetic bicyclic peptide derived from VIpep-3
On to B8, for which, in experiment [1], the binding result is on record as “binds”.

B9: Seq-6 (peptide)
peptide: XYLPKYLCDLI
modifications: Mpa at position 1; NmeTyr at position 2; thioether bridge via DBmXy (1,3-bis(bromomethyl)benzene) linker (1-8); side-chain amide(5-9) between Lys5 and Asp9; C-terminal amide (NH2)
notes: Synthetic bicyclic peptide
In the case of B9, the binding result in experiment [1] is “binds”.

B10: Seq-9 (peptide)
peptide: [Mpa][NMeY]L[Sar]CYLC[Dap]LI-NH2
modifications: linker 1-5-8 via TBMB
SMILES: CC[C@H](C)[C@H](NC(=O)[C@H](CC(C)C)NC(=O)[C@H](CN)NC(=O)[C@@H]1CSCc2cc3cc(c2)CSC[C@H](NC(=O)CN(C)C(=O)[C@H](CC(C)C)NC(=O)[C@H](Cc2ccc(O)cc2)N(C)C(=O)CCSC3)C(=O)N[C@@H](Cc2ccc(O)cc2)C(=O)N[C@@H](CC(C)C)C(=O)N1)C(N)=O
notes: Synthetic bicyclic peptide
Regarding B10, in experiment [3], the binding result is given as “binds”.

B11: Seq-10 (peptide)
peptide: Ac-CPPYLPKYLCDLI-NH2
modifications: disulfide 1-10; lactam 7-11
SMILES: CC[C@H](C)[C@H](NC(=O)[C@H](CC(C)C)NC(=O)[C@@H]1CC(=O)NCCCC[C@@H]2NC(=O)[C@@H]3CCCN3C(=O)[C@H](CC(C)C)NC(=O)[C@H](Cc3ccc(O)cc3)NC(=O)[C@@H]3CCCN3C(=O)[C@@H]3CCCN3C(=O)[C@@H](NC(C)=O)CSSC[C@H](NC(=O)[C@H](CC(C)C)NC(=O)[C@H](Cc3ccc(O)cc3)NC2=O)C(=O)N1)C(N)=O
notes: Synthetic bicyclic peptide
As for B11, the binding result in experiment [1] is given as “binds”.
